For this assay, the target named is T1, VEGFR-2-Fc domain 1&2&3 (Homo sapiens, UniProt P35968).
T1 chain: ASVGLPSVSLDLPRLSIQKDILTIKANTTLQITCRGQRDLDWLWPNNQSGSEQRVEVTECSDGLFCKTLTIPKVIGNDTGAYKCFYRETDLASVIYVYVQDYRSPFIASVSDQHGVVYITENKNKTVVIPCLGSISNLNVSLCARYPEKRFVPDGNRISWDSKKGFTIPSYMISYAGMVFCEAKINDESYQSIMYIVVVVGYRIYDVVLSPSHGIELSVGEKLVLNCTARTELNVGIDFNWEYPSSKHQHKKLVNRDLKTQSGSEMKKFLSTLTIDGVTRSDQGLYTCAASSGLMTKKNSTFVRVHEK
Description: biolayer interferometry.

A word on the Kd: it is a measure of binding affinity in units of concentration. Read a low Kd as higher affinity.

B1: VEGF73-101 (peptide)
chain: Ac-ESNITMQIMRIKPHQGQHIGEMSFLQHMK-NH2
For the molecule B1, the Kd is roughly 124 µM.

B2: VEGF-165 (protein)
chain: MTDRQTDTAPSPSYHLLPGRRRTVDAAASRGQGPEPAPGGGVEGVGARGVALKLFVQLLGCSRFGGAVVRAGEAEPSGAARSASSGREEPQPEEGEEEEEKEEERGPQWRLGARKPGSWTGEAAVCADSAPAARAPQALARASGRGGRVARRGAEESGPPHSPSRRGSASRAGPGRASETMNFLLSWVHWSLALLLYLHHAKWSQAAPMAEGGGQNHHEVVKFMDVYQRSYCHPIETLVDIFQEYPDEIEYIFKPSCVPLMRCGGCCNDEGLECVPTEESNITMQIMRIKPHQGQHIGEMSFLQHNKCECRPKKDRARQEKKSVRGKGKGQKRKRKKSRYKSWSVPCGPCSERRKHLFVQDPQTCKCSCKNTDSRCKARQLELNERTCRCDKPRR
As for B2, the dissociation constant Kd was determined as 0.0035 µM.

Values taken from article PMC12559092 (2025).
